Measurements as given in the supplement of paper PMC9170038.

Columns and labels:
Conditions in all cases: FMN input: 0 or 200 uM; Eterna round: R93 (includes R88 designs)
[1] = test system: MS2 coat protein; assay: apparent KD of MS2 coat protein, switch OFF state (with FMN for OFF switches, without FMN for ON switches); designed switch direction (-1 OFF switch, 1 ON switch): 1; higher = weaker reporter binding
Summary of the method: (§1)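 Binding of SNAP-549-labelled MS2 coat protein was measured on designed RNA switches transcribed on-chip from Illumina sequencing clusters. The protein rose in twofold steps from 0.7 or 1.5 nM to 3 µM, with 0.8–1.5 h per step early on and 10–20 min per step later, in 100 mM Tris-HCl pH 7.5, 80 mM KCl, 4 mM MgCl2, without or with constant ligand. Each design's apparent KD is the median of fits to its normalised cluster binding curves.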

[2] = test system: MS2 coat protein; assay: apparent KD of MS2 coat protein, switch ON state; designed switch direction (-1 OFF switch, 1 ON switch): 1; higher = weaker reporter binding
Summary of the method: as §1

[3] = test system: MS2 coat protein; assay: apparent KD of MS2 coat protein, switch OFF state (with FMN for OFF switches, without FMN for ON switches); designed switch direction (-1 OFF switch, 1 ON switch): -1; higher = weaker reporter binding
Summary of the method: as §1

[4] = test system: MS2 coat protein; assay: apparent KD of MS2 coat protein, switch ON state; designed switch direction (-1 OFF switch, 1 ON switch): -1; higher = weaker reporter binding
Summary of the method: as §1

AAAAAAAAAAAUAAGGAUAUGUGAUCGGUGACAUGAGGAUCACCCAUGUAAGGCCUCCGGGACGGGCAGAAGGUAUAAAAAAAAA [Same State2-III]
apparent KD of MS2 coat protein [1]: 607 nM
apparent KD of MS2 coat protein [2]: 491 nM

AAAAAAAAAAGUCAGGAUAUACAAAUUUUUACAUGAGGAUCACCCAUGUUAAAGAAAAAAAAAAAGUAGAAGGGACAAAAAAAAAA [Same State 2 - Omei 2]
apparent KD of MS2 coat protein [1]: 15.4 nM
apparent KD of MS2 coat protein [2]: 11.1 nM

AAAAAAAAAGUGCAGGAUAUCCUCAUGGCUACAUGAGGAUCACCCAUGUGAAGAAAAGCACAUGAGGAGAAGGGCACAAAAAAAAA [Balance beam]
apparent KD of MS2 coat protein [1]: 23.1 nM
apparent KD of MS2 coat protein [2]: 12.3 nM

AAAAAAAAAUCUCAGGAUAUAGAUUAUAGAACAUGAGGAUCACCCAUGUAGUGAAAGAAGAAAAACUAGAAGGGAGGAAAAAAAAA [Same State 2 #2]
apparent KD of MS2 coat protein [1]: 70.8 nM
apparent KD of MS2 coat protein [2]: 48.2 nM

AAAAAAAAUGUGUAGGAUAUCAGUAAAAAUACAUGAGGAUCACCCAUGUUCAAAAAAAAAAAAACUGAGAAGGACACGGAUGGUCC [Design 1]
apparent KD of MS2 coat protein [1]: 42.6 nM
apparent KD of MS2 coat protein [2]: 35.5 nM

AAAAAACAUGAGGAUCACCCAUGUAAAAAAAUCGCAGGAUAUAAGGUCGCGAAAGCGACCUUAGAAGGGCGAUCCU [Louisiana 1 - Jieux - Same State 1]
apparent KD of MS2 coat protein [1]: 75.8 nM
apparent KD of MS2 coat protein [2]: 46.3 nM

AAAAAACAUGAGGAUCACCCAUGUAAAAAAAUGGGAGGAUAUACAAAAAAAAAAAAAAAAGUAGAAGGCCUGAAAA [same state 10]
apparent KD of MS2 coat protein [1]: 533 nM
apparent KD of MS2 coat protein [2]: 62.3 nM

AAAAAACAUGAGGAUCACCCAUGUAAAAAAAUGGGAGGAUAUACAAAAACGAAAGUCAAAGUAGAAGGCCUGAAAA [same state 5]
apparent KD of MS2 coat protein [1]: 172 nM
apparent KD of MS2 coat protein [2]: 19.3 nM

AAAAAACAUGAGGAUCACCCAUGUAAAAUUAUGGGAGGAUAUGGAAACACGAAAGUGAAACCAGAAGGCCUAAAAG [77%, Mat - Mod of Eli, 11]
apparent KD of MS2 coat protein [1]: 49.7 nM
apparent KD of MS2 coat protein [2]: 25.1 nM

AAAAAACAUGAGGAUCACCCAUGUAGAAACAUGGGAGGAUAUACGAAGACGAAAGUCAAAGUAGAAGGCCUAAGAA [Garnet 88]
apparent KD of MS2 coat protein [1]: 224 nM
apparent KD of MS2 coat protein [2]: 182 nM

AAAAAACAUGAGGAUCACCCAUGUGAAAAUAUGGGAGGAUAUACAAAGACGAGAGUCAAAGUAGAAGGCCUAAAAA [Mat - Same State 1 - Eli mod - D87]
apparent KD of MS2 coat protein [1]: 139 nM
apparent KD of MS2 coat protein [2]: 26.6 nM

AAAAAACAUGAGGAUCACCCAUGUGAGAACAUGGGAGGAUAUACAAGGAUGAGAGUCAAGGUAGAAGGCCUAAGAA [Garnet 70]
apparent KD of MS2 coat protein [1]: 48.5 nM
apparent KD of MS2 coat protein [2]: 76.1 nM

AAAAAAUAAAAAAAGGAUAUACUGCUAGAAACAUGAGGAUCACCCAUGUAACUAGCAGUAAUAAAAAAGAAGGAAAAAUAAAAAA [SS2: MS2 35]
apparent KD of MS2 coat protein [1]: 3.61 nM
apparent KD of MS2 coat protein [2]: 1.15 nM

AAAAAUAAAACACAGGAUAUCCAAAAGAAAACAUGAGGAUCACCCAUGUAAAGAAAAUAAAAAUGGGAGAAGGGUGAAAAUAAGA [Mat - Same State 2 - JL mod - D21]
apparent KD of MS2 coat protein [1]: 52.6 nM
apparent KD of MS2 coat protein [2]: 29.9 nM

AAAACACAUGAGGAUCACCCAUGUAUCUGGACCAUAGGAUAUCCGCACCCACUAAGGCGUGGAGAAGGGUGAGCCC [Antisoorti]
apparent KD of MS2 coat protein [1]: 124 nM
apparent KD of MS2 coat protein [2]: 160 nM

AAAACACAUGAGGAUCACCCAUGUGCAAAAUUCGCAGGAUAUUUCUCGAUUAAAUGAUAGGAAGAAGGGUGAUAAA [Nob's Hobby 35 - Jieux - Same State 1]
apparent KD of MS2 coat protein [1]: 33.7 nM
apparent KD of MS2 coat protein [2]: 25.8 nM

AAAAGACAUGAGGAUCACCCAUGUAAAAACAUAGGAGGAUAUGUCGUGAAAAAAGACUUGGCAGAAGGCCUAUGUC [SS1 - 44]
apparent KD of MS2 coat protein [1]: 30.7 nM
apparent KD of MS2 coat protein [2]: 19.7 nM

AAAAGACAUGAGGAUCACCCAUGUAAAAACUUGGGAGGAUAUGCUUGGAAAACAUGCUAUGCAGAAGGCUCUAGUC [SS1 - 14]
apparent KD of MS2 coat protein [1]: 123 nM
apparent KD of MS2 coat protein [2]: 78.3 nM

AAAAGACAUGAGGAUCACCCAUGUCAAAAGACAUGAGGAUAUGUACAGACUUCGGUCUGUACAGAAGGCAUGAAAA [SS1 - 1066]
apparent KD of MS2 coat protein [1]: 23.6 nM
apparent KD of MS2 coat protein [2]: 13.8 nM

AAAAGACAUGAGGAUCACCCAUGUUAAGACGUAGGAGGAUAUGUAUGGAAAACAUGCUGUACAGAAGGCCUGUGUC [SS1 - 26]
apparent KD of MS2 coat protein [1]: 20.8 nM
apparent KD of MS2 coat protein [2]: 17.8 nM

AAAAGACAUGAGGAUCACCCAUGUUAAGACGUAGGAGGAUAUGUCGUGAAAAAAGACUUGACAGAAGGCCUGUGUC [SS1 - 38]
apparent KD of MS2 coat protein [1]: 20.4 nM
apparent KD of MS2 coat protein [2]: 16 nM

AAAAUACAUGAGGAUCACCCAUGUCCGACAAAUCAAGGAUAUGAUAGCCAAACCAAGCUGUUAGAAGGUGAAAGAA [Edengere]
apparent KD of MS2 coat protein [1]: 208 nM
apparent KD of MS2 coat protein [2]: 499 nM

AAAAUACAUGAGGAUCACCCAUGUGAAAAUAUGGGAGGAUAUACAAAAACGAAAGUAAAAGUAGAAGGCCUAAAAA [SS! 1 MT 1]
apparent KD of MS2 coat protein [1]: 185 nM
apparent KD of MS2 coat protein [2]: 37.8 nM

AAACCACAUGAGGAUCACCCAUGUAAAAAUAUGGGAGGAUAUCGGAAUAAAAUAAAGAAACGAGAAGGCCUAAAAA [59%, Flamingo, 5]
apparent KD of MS2 coat protein [1]: 472 nM
apparent KD of MS2 coat protein [2]: 33.7 nM

AAAGAAAAACUAGAGGAUAUCCGAGUGGUAACAUGAGGAUCACCCAUGUGAUGAAAGGAACAUGAGGAGAAGGCUAGAAGAAAAA [JL Nando mod 8]
apparent KD of MS2 coat protein [1]: 257 nM
apparent KD of MS2 coat protein [2]: 14.4 nM

AAAGACAUGGUGCAGGAUAUAUUAAUAGUCACAUGAGGAUCACCCAUGUUCAGAUAUCUGAACGAGUAGAAGGGCGAUGAAAAAA [SameState2 Malc#5]
apparent KD of MS2 coat protein [1]: 61.9 nM
apparent KD of MS2 coat protein [2]: 88.9 nM

AAAUAAAUGACUAAGGAUAUAUUAGAGAAAACAUGAGGAUCACCCAUGUAAUAAUAAAAAGGGUGAUAGAAGGUAGUCAACAAAC [74%, More Paria 4]
apparent KD of MS2 coat protein [1]: 48.8 nM
apparent KD of MS2 coat protein [2]: 132 nM

AAAUAAAUGACUGAGGAUAUAUCGAAGAAGACAUGAGGAUCACCCAUGUGAUAAUAAAAAGGGUGGUAGAAGGUAGUCAACAAAC [Mod 8 of Pariah 4 by Hyphema in Round 1]
apparent KD of MS2 coat protein [1]: 122 nM
apparent KD of MS2 coat protein [2]: 133 nM

AAAUAACAUGAGGAUCACCCAUGUUACAACAAUACAGGAUAUGUGGGUGAAAAUAGCAUGACAGAAGGGUAAUGUA [SameState1 Malc#32]
apparent KD of MS2 coat protein [1]: 79.8 nM
apparent KD of MS2 coat protein [2]: 239 nM

UAGAAGGUAGGAUAUACUUGGGAAACUAAUGCAAAGAUAUAACAUGAGGAUCACCCAUGUAGAAGGGCCAGUAA [JR_Exc002_Sub018]
apparent KD of MS2 coat protein [3]: 97.9 nM
apparent KD of MS2 coat protein [4]: 114 nM

UCACACCUAGGAUAUACAUGAGGAUCACCCAUGUGGCACUCCGCAGGCAGUGUUCCCAGUAGAAGGAGGACACG [Ricere]
apparent KD of MS2 coat protein [3]: 22.4 nM
apparent KD of MS2 coat protein [4]: 27.8 nM

UCCGAACAUGAGGAUCACCCAUGUCAGGAUAUACACCCAGCAUGGAAGCCAUGCUCAAGUAGAAGGGACGGGUG [Inxeus]
apparent KD of MS2 coat protein [3]: 34.9 nM
apparent KD of MS2 coat protein [4]: 34.9 nM

UCCUGACAUGAGGAUCACCCAUGUCAGGAUAUCUACAGAACCUCAUGUAAAAAACUGUAGAGAAGGGAUAUGGG [Design 98: Pseudoknot H]
apparent KD of MS2 coat protein [3]: 17.5 nM
apparent KD of MS2 coat protein [4]: 16.9 nM
